Reference: patent EP4644420A1 (Unicet Biotech. LLC, dated 2025)
Values joined by “and” are separate entries in the source; they are usually repeats but may differ in a detail not shown here. Equal entries are not always repeated.

What was measured:
B7-H3 antigen protein [1] = biological target: B7-H3 antigen protein (UniProt Q5ZPR3); experiment: blocking ELISA, coated B7-H3 10 µg/mL; no blocker (m2Y31 0 µg/mL); 8H9 2 µg/mL
B7-H3 antigen protein [2] = biological target: B7-H3 antigen protein (UniProt Q5ZPR3); experiment: blocking ELISA, coated B7-H3 10 µg/mL; no blocker (m1B4 0 µg/mL); 8H9 2 µg/mL
B7-H3 antigen protein [3] = biological target: B7-H3 antigen protein (UniProt Q5ZPR3); experiment: blocking ELISA, coated B7-H3 10 µg/mL; no blocker (m2Y31 0 µg/mL); hu2Y31 2 µg/mL

Sequence of B7-H3 antigen protein (Q5ZPR3 29-461): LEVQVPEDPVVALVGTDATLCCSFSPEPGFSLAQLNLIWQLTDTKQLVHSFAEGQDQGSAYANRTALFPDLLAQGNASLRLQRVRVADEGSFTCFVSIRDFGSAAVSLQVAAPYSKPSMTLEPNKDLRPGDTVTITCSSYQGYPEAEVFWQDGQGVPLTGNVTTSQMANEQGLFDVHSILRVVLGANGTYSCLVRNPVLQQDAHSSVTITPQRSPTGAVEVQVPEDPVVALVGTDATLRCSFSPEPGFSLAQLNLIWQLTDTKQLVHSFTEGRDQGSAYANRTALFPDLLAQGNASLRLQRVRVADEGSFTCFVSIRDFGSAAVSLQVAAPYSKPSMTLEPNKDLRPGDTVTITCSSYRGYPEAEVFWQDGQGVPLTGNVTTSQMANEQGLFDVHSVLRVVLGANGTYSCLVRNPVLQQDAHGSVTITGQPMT

Row | Binder | OD value (450 nm) (B7-H3 antigen protein [1]) [OD450] | OD value (450 nm) (B7-H3 antigen protein [2]) | OD value (450 nm) (B7-H3 antigen protein [3])
1 | antibody 8H9 (antibody, from another filing, V domains shown) VH: QVQLQQSGAELVKPGASVKLSCKASGYTFTNYDINWVRQRPEQGLEWIGWIFPGDGSTQYNEKFKGKATLTTDTSSSTAYMQLSRLTSEDSAVYFCARQTTATWFAYWGQGTLVTVSA VL: DIVMTQSPATLSVTPGDRVSLSCRASQSISDYLHWYQQKSHESPRLLIKYASQSISGIPSRFSGSGSGSDFTLSINSVEPEDVGVYYCQNGHSFPLTFGAGTKLELKR | 2.36 | 3.38 OD450 and 3.39 OD450 | 
2 | humanized 2Y31 antibody (antibody, V domains shown) VH: EVQLVESGGGLVKPGGSLKLSCAASGFAFSRYDMSWVRQSPEKRLEWVATISDDGRHTYDRDSVKGRFTISRDNAKNTLYLQMSSLRSEDTALYYCVRHRAITTARFDYWGQGTTVTVSS VL: DIVMTQSPSSLSVSLGDTVSITCKASQDIYSNIGWLQQLPGQSFKGLIYHGTNLEDGVPSRFSGSGSGTDYSLTISGLESEDFADYYCLQYVQFPYTFGGGTKLEIKA |  |  | 2.07 OD450 and 2.02 OD450
